Laboratory results as given in PMC8304084, “A Concerted Action of UBA5 C-Terminal Unstructured Regions Is Important for Transfer of Activated UFM1 to UFC1” (International Journal of Molecular Sciences, 2021).

Key:
Assay in all cases: ITC; VP-ITC, 25 °C; UBA5 peptides (~400 µM) titrated into 20–25 µM binding partner; 25 mM HEPES pH 7.5, 100 mM NaCl; one-site model; a single profile for each interaction
Conditions in all cases: both partners purified
[1] = target: T1, Full length UFM1, residues 2–83 (UniProt P61960 2-83)
T1 construct: N-terminal cloning artefact left after TEV cleavage (vector pET39_Ub19); UFM1 (ubiquitin fold modifier 1), residues 2–83 (processed form ending at Gly83); also called Ubiquitin fold modifier 1; source: E. coli T7 Express, purified (His Trap IMAC, TEV cleavage, reverse IMAC, Superdex gel filtration); not shown: modified ubiquitin tag (Ub19), N-terminal, cleaved
T1 sequence (P61960 other isoform, or with tags, fused parts or gaps): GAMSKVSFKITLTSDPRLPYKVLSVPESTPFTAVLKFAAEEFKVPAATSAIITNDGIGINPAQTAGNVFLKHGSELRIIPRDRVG

LC3B, residues 5–120 = LC3B, residues 5–120 (UniProt Q9GZQ8 5-120)
[2] = target: T2, GABARAPL2, residues 3–116 (UniProt P60520 3-116)
T2 construct: N-terminal cloning artefact left after TEV cleavage (vector pET39_Ub19); source: E. coli T7 Express, purified (His Trap IMAC, TEV cleavage, reverse IMAC, Superdex gel filtration); not shown: modified ubiquitin tag (Ub19), N-terminal, cleaved
T2 sequence (P60520 other isoform, or with tags, fused parts or gaps): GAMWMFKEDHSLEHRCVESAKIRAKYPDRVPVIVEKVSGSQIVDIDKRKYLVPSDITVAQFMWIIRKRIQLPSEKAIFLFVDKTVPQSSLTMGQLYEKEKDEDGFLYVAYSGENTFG

- Kd [1]: > 100 µM
- Kd (LC3B, residues 5–120): > 100 µM
- Kd [2]: > 100 µM
B1: UBA5 C-terminal region R2, residues 359–376 (peptide)
chain: GAMGPVPDLPEGITVAYTIPK
notes: N-terminal cloning artefact left after TEV cleavage (vector pET39_Ub19); also called isolated R2 peptide; source: E. coli T7 Express, purified (His Trap IMAC, TEV cleavage, reverse IMAC, Superdex gel filtration); not shown: modified ubiquitin tag (Ub19), N-terminal, cleaved
